According to article PMC4122463, “Application of Two Newly Identified and Characterized Feruloyl Esterases from Streptomyces sp. in the Enzymatic Production of Ferulic Acid from Agricultural Biomass” (PLoS ONE, 2014):

What was measured:
Assay type in all cases: biochemical, Streptomyces cinnamoneus
[1] = substrate: COC(=O)/C=C/c1ccc(O)cc1; experiment: HPLC of released phenolic acid; conditions: 50 mM Tris maleate, 40 °C, 30 min
From the text: (§1) HPLC of released phenolic acid on R43

[2] = substrate: COC(=O)/C=C/c1ccc(O)c(OC)c1; experiment: HPLC of released phenolic acid; conditions: 50 mM Tris maleate, 40 °C, 30 min
From the text: as §1

[3] = substrate: CCOC(=O)/C=C/c1ccc(O)c(OC)c1; experiment: HPLC of released phenolic acid; conditions: 50 mM Tris maleate, 40 °C, 30 min
From the text: as §1

[4] = substrate: COC(=O)/C=C/c1cc(OC)c(O)c(OC)c1; experiment: HPLC of released phenolic acid; conditions: 50 mM Tris maleate, 40 °C, 30 min
From the text: as §1

[5] = substrate: COC(=O)/C=C/c1ccc(O)c(O)c1; experiment: HPLC of released phenolic acid; conditions: 50 mM Tris maleate, 40 °C, 30 min
From the text: as §1

[6] = substrate: CCCC(=O)Oc1ccc([N+](=O)[O-])cc1; experiment: purified protein; conditions: general esterase assay
[7] = substrate: COC(=O)/C=C/c1ccc(O)cc1; experiment: HPLC of released phenolic acid; conditions: 50 mM Tris maleate, 50 °C, 30 min
From the text: (§2) HPLC of released phenolic acid on R18

[8] = substrate: COC(=O)/C=C/c1ccc(O)c(OC)c1; experiment: HPLC of released phenolic acid; conditions: 50 mM Tris maleate, 50 °C, 30 min
From the text: as §2

[9] = substrate: CCOC(=O)/C=C/c1ccc(O)c(OC)c1; experiment: HPLC of released phenolic acid; conditions: 50 mM Tris maleate, 50 °C, 30 min
From the text: as §2

[10] = substrate: COC(=O)/C=C/c1cc(OC)c(O)c(OC)c1; experiment: HPLC of released phenolic acid; conditions: 50 mM Tris maleate, 50 °C, 30 min
From the text: as §2

[11] = substrate: COC(=O)/C=C/c1ccc(O)c(O)c1; experiment: HPLC of released phenolic acid; conditions: 50 mM Tris maleate, 50 °C, 30 min
From the text: as §2

B1: R43 (Streptomyces cinnamoneus) (protein)
chain: MEIRTAQGIVRGELTAGGLAVFRGVPYARPPVGNLRFAAPQPPLPWDGVRDALAFGPPPPQSGPARVPGDPAGTDWLTLNVWTPDPGGSGLPVLVWIPGGAYVSGAAGDPLYDAALLAGQGGLVVVTLNYRLGAEGFAHLPGVPDNRGLLDQLAALDWVRQNIARFGGNPDRVTLCGQSAGAGSIATLLAAPRAAGLFRRAITQSVPGLYATCALAADVTADLAARLGTTPTTAGLAAVSPQRLADAIDPLMEELPARIDRWGRLARSGVPFLPVVDGDVVPDVPWRSLRDGRASETDLLTGHTRDEFRPFLMLSGHPEKITDEDATAALRALAPAPDGERAYRAAHPDASPAALFELLYSDVLFRMPSLHLADAHSAGGGTAHLYELCLSAPALGGALGAAHGLDVSLLFGTYSAPAARLFYGEEPPPEDVLALGDDIRRSWASFAAHGDPGWPAYRVTDGRLTGLLDTGTGAGPYPEDASRRIWEGHGVEPFDLV
notes: full length, no signal peptide, secreted from Streptomyces expression host (pTONA vector); 498 aa; about 52 kDa; N-terminus at residue 1; monomer; powdered enzyme
**Q.** Which Km [1] does the source give for B1 here?
**A.** 3.00 ± 0.26 mM

**Q.** What about the Vmax [1] of the same protein?
**A.** 0.00817 µmol/min/mg

**Q.** What about the Km [2] of the same protein?
**A.** 4.41 ± 0.36 mM

**Q.** And the Vmax [2]?
**A.** 0.042 µmol/min/mg

**Q.** What about the Km [3] of the same protein?
**A.** 1.96 ± 0.14 mM

**Q.** And the Vmax [3]?
**A.** 0.0153 µmol/min/mg

**Q.** What about the Km [4] of the same protein?
**A.** 0.54 ± 0.07 mM

**Q.** What about the Vmax [4] of the same protein?
**A.** 0.00104 µmol/min/mg

**Q.** What about the Km [5] of the same protein?
**A.** 2.61 ± 0.25 mM

**Q.** What about the Vmax [5] of the same protein?
**A.** 0.0021 µmol/min/mg

**Q.** What about the Km [6] of the same protein?
**A.** 0.17 ± 0.05 mM

**Q.** What about the Vmax [6] of the same protein?
**A.** 0.00056 µmol/min/mg

B2: R18 (Streptomyces cinnamoneus) (protein)
chain: ATAGQEVPAPATRIPLGTKTLHLVDASRQDPWKPSAGNRELMVTLWYPSLPSREPAAPYVSKPLSRAVLGNDVLAGVRTHAVAGARPAPVPRPLVVLSPGFGMSRITLTALGEDLASRGYAVAAVDHTYEAPVEFPGGRIEKCTLCDDSRMDPGAVVRNRAKDLRFVLDRLTGPGSELRVDARRIGVAGHSIGGASAVEVMREDRRVDAAINLDGNFFTEPPAEGLNKPVLLLGARRSGLPEPQENWERAWKQLTGWKRWLDVPAGGHMTFTDVPWIVDRFGMPGQIPPEQVEGQLGTVSAARATAVTRNYVAAFFDRHLRGRPSPLLDRPSSAHPEVTFMK
notes: secreted from Streptomyces expression host (pTONA vector), signal peptide removed; mature N-terminus at residue 42 of 383; about 38 kDa; monomer; powdered enzyme
**Q.** B2 was tested. Which Km [7] did it give?
**A.** 4.31 ± 0.26 mM

**Q.** And the Vmax [7]?
**A.** 0.0262 µmol/min/mg

**Q.** What about the Km [8] of the same protein?
**A.** 4.99 ± 1.72 mM

**Q.** And the Vmax [8]?
**A.** 0.0523 µmol/min/mg

**Q.** And the Km [9]?
**A.** 4.28 ± 0.36 mM

**Q.** And the Vmax [9]?
**A.** 0.0406 µmol/min/mg

**Q.** And the Km [10]?
**A.** 9.39 ± 1.43 mM

**Q.** What about the Vmax [10] of the same protein?
**A.** 0.0367 µmol/min/mg

**Q.** And the Km [11]?
**A.** 3.31 ± 0.31 mM

**Q.** And the Vmax [11]?
**A.** 0.00752 µmol/min/mg
